Measured values taken from patent US20180326022.

Columns and labels:
[1] = target: detyrosinated microtubules (rat cardiomyocytes)
[2] = target: detyrosinated microtubules (human cardiomyocytes)

B1: human tubulin tyrosine ligase (TTL) (protein)
chain: MYTFVVRDENSSVYAEVSRLLLATGHWKRLRRDNPRFNLMLGERNRLPFGRLGHEPGLVQLVNYYRGADKLCRKASLVKLIKTSPELAESCTWFPESYVIYPTNLKTPVAPAQNGIQPPISNSRTDEREFFLASYNRKKEDGEGNVWIAKSSAGAKGEGILISSEASELLDFIDNQGQVHVIQKYLEHPLLLEPGHRKFDIRSWVLVDHQYNIYLYREGVLRTASEPYHVDNFQDKTCHLTNHCIQKEYSKNYGKYEEGNEMFFKEFNQYLTSALNITLESSILLQIKHIIRNCLLSVEPAISTKHLPYQSFQLFGFDFMVDEELKVWLIEVNGAPACAQKLYAELCQGIVDIAISSVFPPPDVEQPQTQPAAFIKL
amount of polymerized, detyrosinated MTs (immunofluorescence and immunoblot) after AdV-TTL [1]: 3-4 fold reduction in the amount of polymerized, detyrosinated MTs | detyr Tubulin, western blotting relative to null, TTL (0.01) (relative to null) [1]: 0.74 | detyr Tubulin, western blotting relative to null, TTL (0.1) (relative to null) [1]: 0.28 | tyr Tubulin, western blotting relative to null, TTL (0.01) (relative to null) [1]: 2.63 | tyr Tubulin, western blotting relative to null, TTL (0.1) (relative to null) [1]: 3.32 | density of dTyr-MTs and dTyr-MT/total MT ratio (immunofluorescence) after AdV-TTL for 48 hrs [2]: decreased the density of dTyr-MTs and the proportion of total MTs that were detyrosinated
